Data on one molecule can be found in publication PMC2714593, “Insights into the role of Val45 and Gln182 of Escherichia coli MutY in DNA substrate binding and specificity”.

Numbering of substitutions follows the chain as printed.

One data set has as its target T1, EcMutY Q182L (Escherichia coli, UniProt P17802 1-350, Q182L).
T1 sequence: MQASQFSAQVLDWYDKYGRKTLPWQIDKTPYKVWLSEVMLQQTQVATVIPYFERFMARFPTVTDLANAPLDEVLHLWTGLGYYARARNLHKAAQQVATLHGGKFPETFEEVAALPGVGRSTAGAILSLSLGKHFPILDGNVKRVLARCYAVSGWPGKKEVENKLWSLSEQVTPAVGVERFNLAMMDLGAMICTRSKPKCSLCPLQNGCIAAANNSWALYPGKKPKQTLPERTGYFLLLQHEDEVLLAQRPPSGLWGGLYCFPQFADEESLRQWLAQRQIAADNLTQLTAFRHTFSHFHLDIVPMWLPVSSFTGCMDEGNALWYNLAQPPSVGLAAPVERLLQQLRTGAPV
In words: EMSA; 20 mM Tris-HCl pH 7.6, 80 mM NaCl, 1 mM DTT, 1 mM EDTA, 2.9% glycerol, 20 ng poly dI/dC per 20 ul, 0.09 nM labeled DNA, 30 min at 30 C; 4% PAGE in TBE. Particulars: protein: recombinant; label: 5'-32P on X strand; blunt; T/G mismatch at strand 1 position 22.

Another data set deals with T2, EcMutY V45A (Escherichia coli, UniProt P17802 1-350, V45A).
T2 sequence: T1 sequence with V45A, L182Q
The data set is described as above. Particulars: protein: recombinant; label: 5'-32P on X strand; blunt; T/G mismatch at strand 1 position 22.

B1: T/G 44-mer (dsDNA)
DNA 1: AATTGGGCTCCTCGAGGAATTTGCCTTCTGCAGGCATGCCCCGG
DNA 2: CCGGGGCATGCCTGCAGAAGGCGAATTCCTCGAGGAGCCCAATT
Broadly, the Kd is a measure of binding affinity in units of concentration. Turning to B1, the equilibrium dissociation constant (Kd) is 0.043 ± 0.014 nM with EcMutY Q182L and 0.011 ± 0.004 nM with EcMutY V45A.
